Usually Km stands for the concentration of substrate that gives half-maximal velocity.

The values below come from paper PMC6317530.

Substrate in the data set: O=C(O)c1cc(=O)[nH]c(=O)n1[C@@H]1O[C@H](COP(=O)(O)O)[C@@H](O)[C@H]1O
The data set is described as follows: purified protein. The conditions noted are these: pH 7.1 (10 mM MOPS), 25 °C, I = 0.105 (NaCl).

B1: ScOMPDC (yeast orotidine 5′-monophosphate decarboxylase) (Saccharomyces cerevisiae S288C; A160S/C155S/N267D/Q215A/S154A/S2H/Y217F) (protein)
chain: MHKATYKERAATHPSPVAAKLFNIMHEKQTNLCASLDVRTTKELLELVEALGPKICLLKTHVDILTDFSMEGTVKPLKALSAKYNFLLFEDRKFADIGNTVKLQYSAGVYRIAEWADITNAHGVVGPGIVSGLKQAAEEVTKEPRGLLMLAELASKGSLSTGEYTKGTVDIAKSDKDFVIGFIAQRDMGGRDEGYDWLIMTPGVGLDDKGDALGAQFRTVDDVVSTGSDIIIVGRGLFAKGRDAKVEGERYRKAGWEAYLRRCGQQD
For B1, the Km came to 1500 ± 50 µM.
